Measurements from doi:10.1101/545921.

Molecular target: AtGAPC1 C149S mutant (Arabidopsis thaliana)
Test: dynamic light scattering

Question: Which stoichiometry N does the source give for AtGAPC1 C149S mutant (enzyme) here?
Answer: 4
